Tests used:
[1] = molecular target: T1, Aβ(1–40) oligomers (Homo sapiens, UniProt P05067); assay: far-Western, overlay or dot blot; spot blot: 1–20 μg of each Aβ species (oligomers/intermediates or fibrils) on nitrocellulose, blocked with 2% BSA in TBST; 4 μg/ml B10AP or KW1AP in TBST for 1 h, room temperature; NBT/BCIP; densitometry; conditions: both partners purified
T1 construct: β-amyloid peptide Aβ(1–40), the 40 amino acid isoform, cut product of the amyloid precursor protein; numbers count on: the Aβ peptide; Oligomeric assembly state; also called Aβ(1–40) intermediates; Aβ(1-40)-derived oligomers; source: oligomers prepared in 100% HFIP, diluted 10-fold with water, supernatant after 14,000 x g

[2] = molecular target: T2, Aβ(1–40) fibrils (Homo sapiens, UniProt P05067); assay: as above; conditions: both partners purified
T2 construct: β-amyloid peptide Aβ(1–40), the 40 amino acid isoform, cut product of the amyloid precursor protein; numbers count on: the Aβ peptide; Fibrillar assembly state; also called Aβ(1–40) amyloid fibrils; source: fibrils formed at 1 mg/ml in 50 mM sodium borate, pH 9.0, 5 days, room temperature

[3] = molecular target: T3, Aβ(1–42) fibrils (Homo sapiens, UniProt P05067); assay: as above; conditions: both partners purified
T3 construct: β-amyloid peptide Aβ(1–42), the 42 amino acid isoform, cut product of the amyloid precursor protein; numbers count on: the Aβ peptide; Fibrillar assembly state; also called Aβ(1–42) amyloid fibrils; source: synthetic peptide (Dr. Sven Rothemund, University Leipzig); fibrils formed at 1 mg/ml in 50 mM sodium borate, pH 9.0, 5 days, room temperature

[4] = molecular target: T4, Aβ(1–40) expressed in Drosophila (KW1;Aβ40 flies) (Homo sapiens (expressed in Drosophila), UniProt P05067); assay: co-IP; head homogenates of 20-day old KW1;Aβ40 flies incubated with blocked protein A magnetic beads without antibody (fly KW1 binds the beads directly); PBS + 0.025% TritonX-100, room temperature; elution with 50 mM glycine pH 2.8; WB with 6E10 (Aβ) and anti-myc (KW1); conditions: partners not purified
T4 construct: β-amyloid peptide Aβ(1–40); numbers count on: the Aβ peptide; Assembly state of the peptide in the fly homogenate is not defined; source: transgenic Drosophila melanogaster (Gal4-elav c155 driver, neuronal), in head homogenate of 20-day old flies

B1: KW1AP (alkaline phosphatase coupled KW1 antibody fragment) (VHH)
VHH: EVQLVESGGGSVQPGGSLRLSCTASGYTFSQEFVIWFRQAPGKEREIVSGISLRKGWTYYADSVKGRFTISQDNAKNTVYLQMNNLKPEDTAMYYCAAAPTATHALYFDYWGQGTQVTVSS
notes: KW1, phage display selected from a fully synthetic library of camelid heavy chain antibody fragments; crystal structure of KW1 is PDB 3TPK; The introduction speaks of bivalent KW1 in earlier work; also called AP coupled KW1
binding result [1]: binds

B2: B10AP (alkaline phosphatase coupled B10 antibody fragment) (VHH)
VHH: EVQLVESGGGLVQPGGSLRLSCTASGYTFSHRYHRWFRQAPGKEREIVAVISQSGMRTYYADSVKGRFTISRDNAKNTVYLQMNSLKPEDTAMYYCAAGTRKNVWTRQHPFDYWGQGTQVTVSS
notes: B10, phage display selected from a fully synthetic library of camelid heavy chain antibody fragments; crystal structure of B10 is PDB 3LN9; The introduction speaks of bivalent B10 in earlier work; also called AP coupled B10
binding result [2]: binds
binding result [3]: binds

B3: fly KW1 (myc-tagged KW1 antibody fragment expressed in Drosophila neurons) (VHH)
VHH: B1 VHH
notes: KW1 as in m1; crystal structure PDB 3TPK; Expressed with an N-terminal secretion signal peptide (SSP) from the Drosophila necrotic gene; Band at ~17 kDa on anti-myc Western blot; source: transgenic Drosophila melanogaster (Gal4-elav c155 driver, neuronal), in head homogenate; not shown: myc, C-terminal, kept
binding result [4]: binds

— PMC4029271, “Oligomer-targeting with a conformational antibody fragment promotes toxicity in Aβ-expressing flies” (Acta Neuropathologica Communications, 2014)
